Reference: patent US20180186871A1
Like-named read-outs stand apart in the source and are kept apart here.

How the values were obtained:
Experiment in all cases: cell-based or functional assay
[1] = molecular target: human IL-11 (human) (UniProt P20809)
[2] = molecular target: T1, murine IL-11 (mouse) (UniProt P47873)
T1 sequence (looked up): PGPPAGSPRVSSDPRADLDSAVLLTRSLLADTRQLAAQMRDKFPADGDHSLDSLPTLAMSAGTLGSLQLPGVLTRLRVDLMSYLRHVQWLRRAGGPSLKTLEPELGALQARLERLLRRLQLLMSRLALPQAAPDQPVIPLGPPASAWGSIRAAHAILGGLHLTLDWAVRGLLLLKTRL

[3] = molecular target: IL-11:IL-11Rα fusion protein
[4] = molecular target: T1, murine IL-11 (mouse); remark: listed apart in the source

Sequence of IL-11:IL-11Rα fusion protein (chain, as listed by the source limits assumed): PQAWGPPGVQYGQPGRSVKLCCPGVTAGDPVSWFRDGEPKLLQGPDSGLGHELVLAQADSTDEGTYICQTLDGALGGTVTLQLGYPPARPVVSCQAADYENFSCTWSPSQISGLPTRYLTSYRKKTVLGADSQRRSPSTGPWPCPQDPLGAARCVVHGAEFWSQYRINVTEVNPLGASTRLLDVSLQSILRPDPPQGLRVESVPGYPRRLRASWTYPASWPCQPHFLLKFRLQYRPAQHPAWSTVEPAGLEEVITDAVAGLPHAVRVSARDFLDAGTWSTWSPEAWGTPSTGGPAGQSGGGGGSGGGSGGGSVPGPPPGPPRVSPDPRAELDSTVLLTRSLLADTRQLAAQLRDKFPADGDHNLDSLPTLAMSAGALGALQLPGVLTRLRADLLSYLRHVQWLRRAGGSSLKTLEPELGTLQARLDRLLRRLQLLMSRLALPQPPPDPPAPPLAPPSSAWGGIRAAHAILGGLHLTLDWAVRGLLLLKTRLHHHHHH

percentage of αSMA-positive (activated) fibroblasts, human atrial fibroblasts + TGFβ1 [1]: 28.3%
percentage of αSMA-positive (activated) fibroblasts, human atrial fibroblasts + TGFβ1, normalised to unstimulated (=1) (fold of unstimulated) [1]: 0.99
percentage of αSMA-positive (activated) fibroblasts, human atrial fibroblasts + TGFβ1, relative to unstimulated [1]: 0.89 times
percentage of αSMA-positive (activated) fibroblasts, mouse atrial fibroblasts + TGFβ1 [2]: 39.4%
percentage of αSMA-positive (activated) fibroblasts, mouse atrial fibroblasts + TGFβ1, normalised to unstimulated (=1) (fold of unstimulated) [2]: 1.24
percentage of αSMA-positive (activated) fibroblasts, human atrial fibroblasts + hyper IL-11 (0.2 ng/ml) [3]: 33.8%
percentage of αSMA-positive (activated) fibroblasts, human atrial fibroblasts + hyper IL-11 (0.2 ng/ml), normalised to unstimulated (=1) (fold of unstimulated) [3]: 1.28
percentage of αSMA-positive (activated) fibroblasts, mouse atrial fibroblasts + TGFβ1 [4]: 43%
percentage of αSMA-positive (activated) fibroblasts, mouse atrial fibroblasts + TGFβ1, normalised to unstimulated (=1) (fold of unstimulated) [4]: 1.44
Substance: Monoclonal Mouse IgG2A anti-human IL-11 antibody, Clone #22626, Catalog No. MAB218 (R&D Systems)
